Laboratory results as given in PMC10786891, “Massively parallel profiling of RNA-targeting CRISPR-Cas13d”.
Residue numbers refer to the chain shown, from its start. Names may count otherwise.

T1: EsCas13d, nuclease-dead (Eubacterium siraeum, UniProt B0MS50, R295A;H300A;R849A;H854A)
T1 sequence: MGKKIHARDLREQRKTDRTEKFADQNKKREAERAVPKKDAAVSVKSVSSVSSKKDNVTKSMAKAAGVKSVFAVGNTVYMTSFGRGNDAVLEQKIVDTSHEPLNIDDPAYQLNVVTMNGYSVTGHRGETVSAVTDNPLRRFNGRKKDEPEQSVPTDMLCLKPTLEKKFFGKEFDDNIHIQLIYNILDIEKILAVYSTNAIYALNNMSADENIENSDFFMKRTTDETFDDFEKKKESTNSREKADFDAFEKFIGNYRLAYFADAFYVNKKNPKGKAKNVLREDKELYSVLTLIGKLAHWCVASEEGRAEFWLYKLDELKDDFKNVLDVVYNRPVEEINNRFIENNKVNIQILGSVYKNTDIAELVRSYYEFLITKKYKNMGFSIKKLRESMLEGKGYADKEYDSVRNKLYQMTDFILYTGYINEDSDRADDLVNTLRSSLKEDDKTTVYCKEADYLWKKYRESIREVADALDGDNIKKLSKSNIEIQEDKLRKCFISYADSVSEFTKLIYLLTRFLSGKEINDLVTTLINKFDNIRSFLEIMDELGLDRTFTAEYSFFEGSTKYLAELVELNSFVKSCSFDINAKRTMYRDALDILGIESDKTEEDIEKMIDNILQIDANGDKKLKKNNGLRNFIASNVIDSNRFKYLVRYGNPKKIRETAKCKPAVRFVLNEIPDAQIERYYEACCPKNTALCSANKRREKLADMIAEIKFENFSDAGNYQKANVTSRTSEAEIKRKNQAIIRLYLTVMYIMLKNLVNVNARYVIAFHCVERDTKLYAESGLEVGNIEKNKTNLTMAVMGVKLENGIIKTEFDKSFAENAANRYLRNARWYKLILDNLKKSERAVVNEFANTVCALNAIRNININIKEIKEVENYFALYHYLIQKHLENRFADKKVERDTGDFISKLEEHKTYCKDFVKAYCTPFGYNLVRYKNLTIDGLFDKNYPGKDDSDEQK

B1: target 1 G12U,C22A (mixed)
RNA 1: CACCCGUGCAAAAAUGCAGGGGUCUAAAACUGAGCGGAUAACCUCUCUAUGG
RNA 2: GGGAAUGGAUCCACAUCUACGAAUUCGUAACAUAGAGAGUUUAUCCGCUCACCGAGAUCGGAAGAGCACACGU
B2: target 1 insU 3' of 13,insA 3' of 8 (mixed)
RNA 1: B1 RNA 1
RNA 2: GGGAAUGGAUCCACAUCUACGAAUUCGUACCAUAGAGAGUGUUAUACCGCUCACCGAGAUCGGAAGAGCACACGU
B3: target 1 insU 3' of 5,insG 3' of 1 (mixed)
RNA 1: B1 RNA 1
RNA 2: GGGAAUGGAUCCACAUCUACGAAUUCGUACCAUAGAGAGGUUAUCCGUCUCAGCCGAGAUCGGAAGAGCACACGU
B4: target 1 insA 3' of 22,insC 3' of 20 (mixed)
RNA 1: B1 RNA 1
RNA 2: GGGAAUGGAUCCACAUCUACGAAUUCGUACACACUAGAGAGGUUAUCCGCUCACCGAGAUCGGAAGAGCACACGU
B5: target 1 U8A,G15A (mixed)
RNA 1: B1 RNA 1
RNA 2: B1 RNA 2 with A30C, G37A, U40G, U44A
B6: target 1 C7U,C22U (mixed)
RNA 1: B1 RNA 1
RNA 2: B1 RNA 2 with A30U, U40G, C45U
B7: target 1 C7A,G13U (mixed)
RNA 1: B1 RNA 1
RNA 2: B1 RNA 2 with A30C, G39U, U40G, C45A
B8: target 1 insG 3' of 8,insA 3' of 6 (mixed)
RNA 1: B1 RNA 1
RNA 2: B2 RNA 2 with U40G, G41U, U43A, A44U, U45G, A46C, C48A
B9: target 1 del2,del8 (mixed)
RNA 1: B1 RNA 1
RNA 2: GGGAAUGGAUCCACAUCUACGAAUUCGUACCAUAGAGAGGUUACCGCUACCGAGAUCGGAAGAGCACACGU
B10: target 1 del1,del8 (mixed)
RNA 1: B1 RNA 1
RNA 2: B9 RNA 2 with A49C
B11: target 1 insC 3' of 18,insA 3' of 2 (mixed)
RNA 1: B1 RNA 1
RNA 2: GGGAAUGGAUCCACAUCUACGAAUUCGUACCAUACGAGAGGUUAUCCGCUCAACCGAGAUCGGAAGAGCACACGU
B12: target 1 insA 3' of 22,insC 3' of 18 (mixed)
RNA 1: B1 RNA 1
RNA 2: B4 RNA 2 with C34U, U35A, A36C
B13: target 1 C2U,C6A (mixed)
RNA 1: B1 RNA 1
RNA 2: B1 RNA 2 with A30C, U40G, C46A, C50U
B14: target 1 C7U (mixed)
RNA 1: B1 RNA 1
RNA 2: B1 RNA 2 with A30C, U40G, C45U
B15: target 1 insU 3' of 17,insG 3' of 4 (mixed)
RNA 1: B1 RNA 1
RNA 2: B11 RNA 2 with C35G, G36U, U50G, C51U, A52C
B16: target 1 G15C,G17A (mixed)
RNA 1: B1 RNA 1
RNA 2: B1 RNA 2 with A30C, G35A, G37C, U40G
B17: target 1 insG 3' of 21,insA 3' of 10 (mixed)
RNA 1: B1 RNA 1
RNA 2: GGGAAUGGAUCCACAUCUACGAAUUCGUACCGAUAGAGAGGUUAAUCCGCUCACCGAGAUCGGAAGAGCACACGU
B18: target 1 C4A,G12U (mixed)
RNA 1: B1 RNA 1
RNA 2: B1 RNA 2 with A30C, C48A
B19: target 1 C2U,G17U (mixed)
RNA 1: B1 RNA 1
RNA 2: B1 RNA 2 with A30C, G35U, U40G, C50U
B20: target 1 G13A,C21U (mixed)
RNA 1: B1 RNA 1
RNA 2: B1 RNA 2 with A30C, C31U, G39A, U40G
B21: target 1 G15U,A18U (mixed)
RNA 1: B1 RNA 1
RNA 2: B1 RNA 2 with A30C, A34U, G37U, U40G
B22: target 1 insU 3' of 21,insA 3' of 15 (mixed)
RNA 1: B1 RNA 1
RNA 2: B17 RNA 2 with G32U, G40A, U42G, A44U
B23: target 1 insU 3' of 12,insA 3' of 8 (mixed)
RNA 1: B1 RNA 1
RNA 2: B2 RNA 2 with U40G, G41U
B24: target 1 insA 3' of 21,insA 3' of 5 (mixed)
RNA 1: B1 RNA 1
RNA 2: B17 RNA 2 with G32A, A45U, U46C, C48G, G49A
B25: target 1 insC 3' of 17,insU 3' of 6 (mixed)
RNA 1: B1 RNA 1
RNA 2: B11 RNA 2 with C35G, G36C, G48U, C49G, U50C, C51U, A52C
B26: target 1 insC 3' of 17,insC 3' of 11 (mixed)
RNA 1: B1 RNA 1
RNA 2: B17 RNA 2 with G32A, A33U, U34A, A35G, G36C, U43C, A44U
B27: target 1 insG 3' of 16,insC 3' of 12 (mixed)
RNA 1: B1 RNA 1
RNA 2: B2 RNA 2 with A38G, G39A, U40G, U42C, A44U, U45A, A46U
B28: target 1 insU 3' of 13,insU 3' of 1 (mixed)
RNA 1: B1 RNA 1
RNA 2: B11 RNA 2 with C35G, G36A, A37G, G38A, A39G, G40U, A53U
B29: target 1 insA 3' of 22,insU 3' of 7 (mixed)
RNA 1: B1 RNA 1
RNA 2: B17 RNA 2 with C31A, G32C, A45U, U46C, C47U
B30: target 1 insU 3' of 9,insG 3' of 7 (mixed)
RNA 1: B1 RNA 1
RNA 2: B2 RNA 2 with U40G, G41U, U43A, A44U, A46C, C47G
B31: target 1 insU 3' of 21,insU 3' of 4 (mixed)
RNA 1: B1 RNA 1
RNA 2: B11 RNA 2 with A32U, U33A, A34U, C35A, C51U, A52C
B32: target 1 insA 3' of 17,insA 3' of 8 (mixed)
RNA 1: B1 RNA 1
RNA 2: B2 RNA 2 with G37A, A38G, G39A, U40G
B33: target 1 insC 3' of 22,insU 3' of 15 (mixed)
RNA 1: B1 RNA 1
RNA 2: B17 RNA 2 with G32C, A39U, G40A, U42G, A44U
B34: target 1 insC 3' of 11,insC 3' of 10 (mixed)
RNA 1: B1 RNA 1
RNA 2: B2 RNA 2 with U40G, G41U, U42C, A44C, U45A, A46U

Each binder was assayed against T1, EsCas13d, nuclease-dead (assay: crRNA (strand 1, pre-loaded); Mg2+; 40 mM Tris-HCl pH 7.5, 150 mM NaCl, 6 mM MgCl2, 1 mM DTT, 0.1% Tween-20, 0.2 mg/ml BSA; 25 C; 10 min per concentration, then washed). Details: tags: His6-TwinStrep-SUMO cleaved; N-terminal SNAP kept (SNAP-Surface 488); label: 3' end held by stalled T7 RNA polymerase.

Binder	Kd [µM]
B1	0.0197 ± 0.001
B2	0.0141 ± 0.0007
B3	0.0074 ± 0.0006
B4	0.0059 ± 0.00023
B5	0.087 ± 0.023
B6	0.0142 ± 0.0013
B7	0.059 ± 0.021
B8	0.0131 ± 0.0008
B9	0.01 ± 0.0005
B10	0.0173 ± 0.0017
B11	0.0281 ± 0.0026
B12	0.047 ± 0.008
B13	0.006 ± 0.0004
B14	0.0075 ± 0.0004
B15	0.0145 ± 0.0013
B16	0.09 ± 0.04
B17	0.084 ± 0.024

Binder	Kd [µM]
B18	0.0085 ± 0.0013
B19	0.0205 ± 0.0024
B20	0.0078 ± 0.0007
B21	0.07 ± 0.013
B22	0.0185 ± 0.0017
B23	0.0123 ± 0.0007
B24	0.0143 ± 0.0009
B25	0.064 ± 0.008
B26	0.08 ± 0.026
B27	0.047 ± 0.013
B28	0.0148 ± 0.0017
B29	0.0153 ± 0.0007
B30	0.0106 ± 0.0005
B31	0.0218 ± 0.001
B32	0.0161 ± 0.0012
B33	0.029 ± 0.01
B34	0.029 ± 0.004
